Reference: the supplement of paper PMC9112550, “Optimization of the antimicrobial peptide Bac7 by deep mutational scanning” (BMC Biology, 2022)

tested on: Escherichia coli TOP10; assay: shrunken log2 fold change of peptide-encoding DNA abundance (4.5 h post-induction vs induction); higher = less antimicrobial activity (less host growth inhibition); details: time post-induction: 4.5 h; library: site-saturation at positions 5, 18, 19, 20
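Also: peptides expressed intracellularly from a pBAD plasmid library in pooled LB shake-flask culture, induced with 0.3% L-arabinose, DNA abundance read by NGS, three biological replicates, DESeq2 with apeglm shrinkage.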

Row | Sequence | shrunken log2 fold change
1 | RRIRNRPPRLPRPRPRPKTHPRP | -0.298
2 | RRIRYRPPRLPRPRPRPGNWPRP | -0.163
3 | RRIRNRPPRLPRPRPRPAVVPRP | 0.251
4 | RRIRNRPPRLPRPRPRPMLFPRP | -0.301
5 | RRIRKRPPRLPRPRPRPWCGPRP | 0.153
6 | RRIRIRPPRLPRPRPRPSSLPRP | -0.713
7 | RRIRLRPPRLPRPRPRPACPPRP | -0.00982
8 | RRIRERPPRLPRPRPRPLHWPRP | 0.0186
9 | RRIRTRPPRLPRPRPRPMANPRP | -0.102
10 | RRIRIRPPRLPRPRPRPNHLPRP | -0.844
11 | RRIRTRPPRLPRPRPRPKYGPRP | -0.0738
12 | RRIRFRPPRLPRPRPRPALEPRP | 0.0373
13 | RRIRGRPPRLPRPRPRPDQFPRP | 0.704
14 | RRIRARPPRLPRPRPRPPGIPRP | 0.331
15 | RRIRPRPPRLPRPRPRPYTEPRP | -0.349
16 | RRIRIRPPRLPRPRPRPGENPRP | -0.0334
17 | RRIRDRPPRLPRPRPRPVCRPRP | 0.251
18 | RRIRWRPPRLPRPRPRPMAIPRP | -0.198
19 | RRIRVRPPRLPRPRPRPMVGPRP | 0.0148
20 | RRIRPRPPRLPRPRPRPKAFPRP | -0.198
21 | RRIRVRPPRLPRPRPRPAFSPRP | 0.104
22 | RRIRCRPPRLPRPRPRPCDQPRP | 0.143
23 | RRIRSRPPRLPRPRPRPVRLPRP | 0.196
24 | RRIRPRPPRLPRPRPRPITEPRP | -0.0543
25 | RRIRCRPPRLPRPRPRPRVPPRP | -0.0115

Row | Sequence | shrunken log2 fold change
26 | RRIRGRPPRLPRPRPRPHDHPRP | -0.027
27 | RRIRYRPPRLPRPRPRPIMSPRP | -0.114
28 | RRIRYRPPRLPRPRPRPYEKPRP | -0.117
29 | RRIRRRPPRLPRPRPRPNFLPRP | 0.0376
30 | RRIRIRPPRLPRPRPRPYQRPRP | -0.12
31 | RRIRCRPPRLPRPRPRPHQEPRP | -0.0176
32 | RRIRPRPPRLPRPRPRPMKHPRP | 0.0348
33 | RRIRFRPPRLPRPRPRPQSVPRP | -0.0251
34 | RRIRMRPPRLPRPRPRPMRDPRP | 1.3
35 | RRIRVRPPRLPRPRPRPQQAPRP | -0.0616
36 | RRIRTRPPRLPRPRPRPKASPRP | -0.0647
37 | RRIRLRPPRLPRPRPRPDCWPRP | 0.362
38 | RRIRTRPPRLPRPRPRPPEKPRP | 0.0774
39 | RRIRHRPPRLPRPRPRPMSGPRP | -0.0285
40 | RRIRWRPPRLPRPRPRPAQDPRP | 0.415
41 | RRIRARPPRLPRPRPRPKGVPRP | 0.15
42 | RRIRWRPPRLPRPRPRPYGYPRP | -0.345
43 | RRIRFRPPRLPRPRPRPHCNPRP | -0.548
44 | RRIRRRPPRLPRPRPRPTMRPRP | 0.667
45 | RRIRTRPPRLPRPRPRPGENPRP | 0.182
46 | RRIRDRPPRLPRPRPRPYADPRP | -0.155
47 | RRIRRRPPRLPRPRPRPLSAPRP | 0.444
48 | RRIRRRPPRLPRPRPRPMGNPRP | 0.0273
49 | RRIRKRPPRLPRPRPRPAEEPRP | 0.906
50 | RRIRCRPPRLPRPRPRPCMIPRP | -0.23

Row | Sequence | shrunken log2 fold change
51 | RRIRYRPPRLPRPRPRPQAFPRP | -0.142
52 | RRIRFRPPRLPRPRPRPNPHPRP | -0.428
53 | RRIRKRPPRLPRPRPRPVVTPRP | 0.417
54 | RRIRERPPRLPRPRPRPWSKPRP | -0.466
55 | RRIRHRPPRLPRPRPRPKQRPRP | 0.41
56 | RRIRYRPPRLPRPRPRPWFHPRP | -0.17
57 | RRIRQRPPRLPRPRPRPYWTPRP | -0.496
58 | RRIRQRPPRLPRPRPRPALIPRP | 0.144
59 | RRIRWRPPRLPRPRPRPECEPRP | 0.912
60 | RRIRDRPPRLPRPRPRPEIHPRP | 0.597
61 | RRIRIRPPRLPRPRPRPHYTPRP | -0.591
62 | RRIRFRPPRLPRPRPRPNMSPRP | -0.54
63 | RRIRDRPPRLPRPRPRPFKRPRP | -0.00875
64 | RRIRRRPPRLPRPRPRPRGQPRP | 1.11
65 | RRIRARPPRLPRPRPRPIYKPRP | -0.172
66 | RRIRTRPPRLPRPRPRPWKGPRP | 0.143
67 | RRIRARPPRLPRPRPRPCPMPRP | -0.0338
68 | RRIRQRPPRLPRPRPRPKASPRP | -0.0573
69 | RRIRIRPPRLPRPRPRPWLKPRP | 4.66
70 | RRIRFRPPRLPRPRPRPAMNPRP | -0.102
71 | RRIRKRPPRLPRPRPRPNNEPRP | 0.0823
72 | RRIRARPPRLPRPRPRPWTMPRP | -0.0418
73 | RRIRARPPRLPRPRPRPAYHPRP | -0.0226
74 | RRIRMRPPRLPRPRPRPITRPRP | 0.248
75 | RRIRSRPPRLPRPRPRPEHYPRP | -0.132

Row | Sequence | shrunken log2 fold change
76 | RRIRKRPPRLPRPRPRPFWCPRP | -0.0466
77 | RRIRERPPRLPRPRPRPIHRPRP | 0.0155
78 | RRIRRRPPRLPRPRPRPSTTPRP | 0.00373
79 | RRIRLRPPRLPRPRPRPYKCPRP | -0.0222
80 | RRIRERPPRLPRPRPRPVWTPRP | -0.00115
81 | RRIRTRPPRLPRPRPRPRKKPRP | 0.173
82 | RRIRDRPPRLPRPRPRPATRPRP | 0.701
83 | RRIRHRPPRLPRPRPRPIQKPRP | -0.00174
84 | RRIRYRPPRLPRPRPRPEDSPRP | -0.0108
85 | RRIRMRPPRLPRPRPRPPERPRP | 1.98
86 | RRIRTRPPRLPRPRPRPTAIPRP | 0.0593
87 | RRIRMRPPRLPRPRPRPNTKPRP | -0.0097
88 | RRIRNRPPRLPRPRPRPALYPRP | -0.125
89 | RRIRYRPPRLPRPRPRPLNEPRP | -0.0438
90 | RRIRMRPPRLPRPRPRPRKAPRP | 1.09
91 | RRIRIRPPRLPRPRPRPEQCPRP | -0.122
92 | RRIRYRPPRLPRPRPRPSQEPRP | -0.748
93 | RRIRCRPPRLPRPRPRPYYNPRP | -1.2
94 | RRIRCRPPRLPRPRPRPNQIPRP | -0.367
95 | RRIRRRPPRLPRPRPRPKQHPRP | 0.302
96 | RRIRWRPPRLPRPRPRPLPAPRP | 1.25
97 | RRIRKRPPRLPRPRPRPWHGPRP | -0.165
98 | RRIRVRPPRLPRPRPRPNMTPRP | -0.256
99 | RRIRYRPPRLPRPRPRPDIVPRP | -0.295
100 | RRIRCRPPRLPRPRPRPTHYPRP | 0.513

Row | Sequence | shrunken log2 fold change
101 | RRIRQRPPRLPRPRPRPFVHPRP | -0.0465
102 | RRIRMRPPRLPRPRPRPSQAPRP | 0.689
103 | RRIRFRPPRLPRPRPRPEMRPRP | 0.244
104 | RRIRQRPPRLPRPRPRPLTEPRP | -0.22
105 | RRIRFRPPRLPRPRPRPRPIPRP | 0.341
106 | RRIRGRPPRLPRPRPRPISQPRP | 0.135
107 | RRIRWRPPRLPRPRPRPMSSPRP | 0.0453
108 | RRIRSRPPRLPRPRPRPPEMPRP | 0.265
109 | RRIRIRPPRLPRPRPRPIQKPRP | 0.00853
110 | RRIRFRPPRLPRPRPRPEFHPRP | -0.342
111 | RRIRKRPPRLPRPRPRPPRGPRP | 1.13
112 | RRIRSRPPRLPRPRPRPCMHPRP | -0.514
113 | RRIRHRPPRLPRPRPRPFPNPRP | -0.0913
114 | RRIRPRPPRLPRPRPRPPQMPRP | 0.531
115 | RRIRFRPPRLPRPRPRPWYLPRP | -0.549
116 | RRIRVRPPRLPRPRPRPISVPRP | -0.131
117 | RRIRDRPPRLPRPRPRPAYPPRP | 0.147
118 | RRIRFRPPRLPRPRPRPGWRPRP | 0.536
119 | RRIRRRPPRLPRPRPRPTLWPRP | 0.563
120 | RRIRSRPPRLPRPRPRPNDLPRP | -0.23
121 | RRIRHRPPRLPRPRPRPWISPRP | -0.0102
122 | RRIRVRPPRLPRPRPRPDCKPRP | -0.104
123 | RRIRFRPPRLPRPRPRPSLHPRP | -0.558
124 | RRIRGRPPRLPRPRPRPYDDPRP | -0.199
125 | RRIRDRPPRLPRPRPRPNFWPRP | 0.375

Row | Sequence | shrunken log2 fold change
126 | RRIRLRPPRLPRPRPRPHKPPRP | 0.119
127 | RRIRLRPPRLPRPRPRPLVKPRP | -0.00589
128 | RRIRKRPPRLPRPRPRPNEPPRP | 0.027
129 | RRIRNRPPRLPRPRPRPNNSPRP | -0.376
130 | RRIRRRPPRLPRPRPRPWQCPRP | -0.0743
131 | RRIRKRPPRLPRPRPRPEGIPRP | -0.0332
132 | RRIRPRPPRLPRPRPRPSPLPRP | 0.0443
133 | RRIRCRPPRLPRPRPRPVMFPRP | -0.154
134 | RRIRPRPPRLPRPRPRPCWWPRP | 0.742
135 | RRIRRRPPRLPRPRPRPQMMPRP | -0.232
136 | RRIRRRPPRLPRPRPRPITMPRP | -0.0568
137 | RRIRVRPPRLPRPRPRPQKWPRP | 0.202
138 | RRIRHRPPRLPRPRPRPGLCPRP | 0.101
139 | RRIRFRPPRLPRPRPRPCWLPRP | -0.165
140 | RRIRERPPRLPRPRPRPLNQPRP | -0.547
141 | RRIRVRPPRLPRPRPRPEYPPRP | -0.322
142 | RRIRFRPPRLPRPRPRPWSEPRP | -0.173
143 | RRIRIRPPRLPRPRPRPKHSPRP | -0.447
144 | RRIRIRPPRLPRPRPRPYKYPRP | -0.89
145 | RRIRQRPPRLPRPRPRPKTQPRP | 0.121
146 | RRIRKRPPRLPRPRPRPSYKPRP | -0.692
147 | RRIRCRPPRLPRPRPRPWCFPRP | -0.712
148 | RRIRLRPPRLPRPRPRPNEDPRP | -0.132
149 | RRIRHRPPRLPRPRPRPEGTPRP | -0.0282
150 | RRIRSRPPRLPRPRPRPKPEPRP | -0.01
